# Results from patent US20110123511.
# Columns and labels:
# [1] = biological target: GST-fusion histone H3 peptide (residues 1-57), K27R mutant [GST: P08515]
# [2] = biological target: GST-fusion histone H3 peptide (residues 1-57), wild-type
# [3] = biological target: H3 peptide containing residues 15-30
# [4] = biological target: core histone H2A
# [5] = biological target: core histone H2B
# [6] = biological target: core histone H4
# [7] = biological target: full-length free histone H3 (individual core histone)
# [8] = biological target: peptide containing H3 residues 1-20
protein,measurement,setting,value
recombinant wild-type vSET expressed in E. coli BL21 (protein) MFNDRVIVKKSPLGGYGVFARKSFEKGELVEECLCIVRHNDDWGTALEDYLFSRKNMSAMALGFGAIFNHSKDPNARHELTAGLKRMRIFTIKPIAIGEEITISYGDDYWLSRPRLTQN,methylation assay (methyl transfer from 14C-methyl-SAM),[1],The methylation assay showed that vSET was only active when H3 contained K27
same,methylation assay (methyl transfer from 14C-methyl-SAM),[2],The methylation assay showed that vSET was only active when H3 contained K27
same,methylation activity with H3 peptides (14C-methyl-SAM),[3],"Like vSET, these viral SET proteins only methylated a H3 peptide containing residues 15-30 but not a peptide containing H3 residues 1-20"
same,histone methyltransferase activity,[4],"confirming its activity for full-length free H3 and H3 within the nucleosome, but not other core histones"
same,histone methyltransferase activity,[5],"confirming its activity for full-length free H3 and H3 within the nucleosome, but not other core histones"
same,histone methyltransferase activity,[6],"confirming its activity for full-length free H3 and H3 within the nucleosome, but not other core histones"
same,histone methyltransferase activity,[7],"confirming its activity for full-length free H3 and H3 within the nucleosome, but not other core histones"
same,methylation activity with H3 peptides (14C-methyl-SAM),[8],"Like vSET, these viral SET proteins only methylated a H3 peptide containing residues 15-30 but not a peptide containing H3 residues 1-20"
